The target in the test is endogenous phosphorylated p38 (P-p38) (human (endogenous in Huh7.5.1)) (UniProt Q16539).
UniProt Q16539, sequence (Q16539 whole entry): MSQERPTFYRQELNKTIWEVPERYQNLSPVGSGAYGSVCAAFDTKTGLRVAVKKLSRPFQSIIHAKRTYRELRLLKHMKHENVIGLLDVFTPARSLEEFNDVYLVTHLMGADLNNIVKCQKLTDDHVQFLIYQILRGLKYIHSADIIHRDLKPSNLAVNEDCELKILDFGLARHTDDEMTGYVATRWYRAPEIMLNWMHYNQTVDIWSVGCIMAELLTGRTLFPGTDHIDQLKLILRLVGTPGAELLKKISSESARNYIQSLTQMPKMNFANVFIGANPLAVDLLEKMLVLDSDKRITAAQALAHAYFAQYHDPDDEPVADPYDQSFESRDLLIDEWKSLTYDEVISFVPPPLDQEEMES

In turn, “HCV core protein N-terminal peptide (CN-peptide)” showed a reduction of intracellular HCV RNA (qRT-PCR) in JFH1-infected primary human hepatocytes incubated with the CN-peptide for 72 h; the pair blocked is p38α and the HCV core protein (m8 and m9) of 91%.

The values above are taken from publication PMC7667676.
